B1: BicD2-CTD (C-terminal cargo-binding domain of human Bicaudal D2, residues 715-804) [human] / full-length GTP-bound Rab6a/Q72L with N-terminal GST tag [human] (parent complex)
chain 1: YENEKAMVTETMMKLRNELKALKEDAATFSSLRAMFATRCDEYITQLDEMQRQLAAAEDEKKTLNSLLRMAIQQKLALTQRLELLELDHE
chain 2: MSTGGDFGNPLRKFKLVFLGEQSVGKTSLITRFMYDSFDNTYQATIGIDFLSKTMYLEDRTVRLQLWDTAGLERFRSLIPSYIRDSTVAVVVYDITNVNSFQQTTKWIDDVRTERGSDVIIMLVGNKTDLADKRQVSIEEGERKAKELNVMFIETSAKAGYNVKQLFRRVAAALPGMESTQDRSREDMIDIKLEKPQEQPVSEGGCSC

The variants in this test derive from B1. The test is described as follows: GST pull-down, SDS-PAGE band quantification; parent: 1; read off a plot.
On to chain 2 S77A, for which the ratio to parent is about 0.86.

Turning to chain 2 I48A, the ratio to parent was about 1.3. On to chain 2 I79A, for which the ratio to parent was about 0.1.

Consider chain 2 I46A, for which the ratio to parent was about 0.07. Take chain 2 F75A: the ratio to parent is about 0.02. The result for chain 2 R63A reads about 0.07.

As for chain 2 I83A, the ratio to parent is about 0.02. Under chain 2 S81A stands about 1. chain 2 Y35A: the ratio to parent was about 0.4. chain 2 R84A: the ratio to parent was about 1.

Take chain 2 P80A: the ratio to parent was about 0.75. Under chain 2 Q65A stands about 0.48. Under chain 2 L78A stands about 0.57; under chain 2 K53A, about 0.01. Under chain 2 Q43A stands about 1.

Regarding chain 2 D49A, the ratio to parent was about 0.04. Under chain 2 D85A stands about 0.99. Under chain 2 S52A stands about 1; under chain 2 F50A, about 0.37; under chain 2 L51A, about 1.1. Consider chain 2 Y42A, for which the ratio to parent is about 0.38. The result for chain 2 Y82A reads about 0.16; that for chain 2 R74A, about 0.95; that for chain 2 T54A, about 0.79.

For the origin of these results see publication PMC11077774 (2024).
